# Measurements from US20140045930.
# T1: peptide NTHRGMGYSLRGL (CreB)
# T1 chain: NTHRGMGYSLRGL
# T2: peptide ELNREQKWQMMLSKSMRR (CaiF)
# T2 chain: ELNREQKWQMMLSKSMRR
# T3: peptide KTPLAVLQSTLRS (PhoQ)
# T3 chain: KTPLAVLQSTLRS
# T4: peptide AQYPQEVITTVRG (PhoP)
# T4 chain: AQYPQEVITTVRG
# T5: peptide LAVLQSTLRSLRS (PhoQ)
# T5 chain: LAVLQSTLRSLRS
# T6: peptide KLLRLFFPLSLRV (PhoQ)
# T6 chain: KLLRLFFPLSLRV
# T7: peptide LLRLFFPLSLRV (PhoQ)
# T7 chain: LLRLFFPLSLRV
# T8: peptide ATVAKCVEALKERFQASLRD (PheT)
# T8 chain: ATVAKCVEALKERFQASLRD
# T9: peptide RLLPAVSEATIRRL
# T9 chain: RLLPAVSEATIRRL
# T10: peptide VEALKERFQASLRD (Phenylalanyl-tRNA synthetase)
# T10 chain: VEALKERFQASLRD
# T11: peptide LTHSLKTPLAVLQSTLRS (PhoQ)
# T11 chain: LTHSLKTPLAVLQSTLRS
# T12: peptide KTPLAVLQSTLRSLR (PhoQ)
# T12 chain: KTPLAVLQSTLRSLR
# T13: octameric peptide AVSEATIR
# T13 chain: AVSEATIR
# T14: peptide KWQMMLSKSMRR (CaiF)
# T14 chain: KWQMMLSKSMRR
# T15: peptide LTELNREQKWQMMLSKSMRR (CaiF)
# T15 chain: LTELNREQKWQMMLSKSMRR
# T16: peptide KHVQALDLSMRFR (Nicotinate-nucleotide diphosphorylase)
# T16 chain: KHVQALDLSMRFR
# T17: peptide VAKCVEALKERFQASLRD (PheT)
# T17 chain: VAKCVEALKERFQASLRD
# B1: Recombinant YcfD, N-terminally hexa-His tagged (E. coli) (protein)
# chain: MEYQLTLNWPDFLERHWQKRPVVLKRGFNNFIDPISPDELAGLAMESEVDSRLVSHQDGKWQVSHGPFESYDHLGETNWSLLVQAVNHWHEPTAALMRPFRELPDWRIDDLMISFSVPGGGVGPHLDQYDVFIIQGTGRRRWRVGEKLQMKQHCPHPDLLQVDPFEAIIDEELEPGDILYIPPGFPHEGYALENAMNYSVGFRAPNTRELISGFADYVLQRELGGNYYSDPDVPPRAHPADVLPQEMDKLREMMLELINQPEHFKQWFGEFISQSRHELDIAPPEPPYQPDEIYDALKQGEVLVRLGGLRVLRIGDDVYANGEKIDSPHRPALDALASNIALTAENFGDALEDPSFLAMLAALVNSGYWFFEG
# What was measured:
# [1] = target: T1, peptide NTHRGMGYSLRGL (CreB)
# [2] = target: T2, peptide ELNREQKWQMMLSKSMRR (CaiF)
# [3] = target: T3, peptide KTPLAVLQSTLRS (PhoQ)
# [4] = target: T4, peptide AQYPQEVITTVRG (PhoP)
# [5] = target: T5, peptide LAVLQSTLRSLRS (PhoQ)
# [6] = target: T6, peptide KLLRLFFPLSLRV (PhoQ)
# [7] = target: T7, peptide LLRLFFPLSLRV (PhoQ)
# [8] = target: T8, peptide ATVAKCVEALKERFQASLRD (PheT)
# [9] = target: T9, peptide RLLPAVSEATIRRL
# [10] = target: T10, peptide VEALKERFQASLRD …
# [11] = target: T11, peptide LTHSLKTPLAVLQSTLRS (PhoQ)
# [12] = target: T12, peptide KTPLAVLQSTLRSLR (PhoQ)
# [13] = target: T13, octameric peptide AVSEATIR
# [14] = target: T14, peptide KWQMMLSKSMRR (CaiF)
# [15] = target: T15, peptide LTELNREQKWQMMLSKSMRR (CaiF)
# [16] = target: T16, peptide KHVQALDLSMRFR …
# [17] = target: T17, peptide VAKCVEALKERFQASLRD (PheT)
protein,measurement,setting,value
B1,% hydroxylation (+16 Da),[1],30%
same,% hydroxylation (+16 Da),[2],40%
same,% hydroxylation (+16 Da),[3],95%
same,% hydroxylation (+16 Da),[4],60%
same,% hydroxylation (+16 Da),[5],60%
same,% hydroxylation (+16 Da),[6],60%
same,% hydroxylation (+16 Da),[7],50%
same,% hydroxylation (+16 Da),[8],40%
same,"+16Da mass shift (hydroxylation, MALDI-TOF MS)",[9],gave a +16Da mass shift upon incubation with YcfD in an Fe(II) and 2OG dependent manner
same,% hydroxylation (+16 Da),[10],40%
same,% hydroxylation (+16 Da),[11],90%
same,% hydroxylation (+16 Da),[12],40%
same,position of hydroxylation (2D-NMR after incubation with YcfD),[13],2D-NMR analyses revealed the position of hydroxylation as at C-3 of the hydroxylated arginine-residue
same,% hydroxylation (+16 Da),[14],30%
same,% hydroxylation (+16 Da),[15],40%
same,% hydroxylation (+16 Da),[16],30%
same,% hydroxylation (+16 Da),[17],50%
